US20210389324

Columns and labels:
[1] = system: CFP-FOXP3-YFP (18-residue)
[2] = system: CFP-FOXP3-YFP (25-residue)
[3] = system: CFP-MYH6/7-YFP (16-residue)
[4] = system: CFP-MYH6/7-YFP (23-residue)
[5] = system: CFP-TRIM14-YFP 19-residue substrate
[6] = system: CFP-TRIM14-YFP 22-residue substrate

| Substance | cleavage of CFP-YFP substrate [1] | cleavage of CFP-YFP substrate [2] | cleavage of CFP-YFP substrate [3] | cleavage of CFP-YFP substrate [4] | cleavage of CFP-YFP substrate (CFP-PROS1-YFP) | cleavage of CFP-YFP substrate (CFP-SFVp12-YFP 11:6) | cleavage of CFP-YFP substrate (CFP-SFVp12-YFP 19:6) | Km [5] | Vmax [5] | cleavage of CFP-YFP substrate [5] | Km [6] | Vmax [6] | cleavage of CFP-YFP substrate [6] | Km (CFP-V34-YFP) | Vmax (CFP-V34-YFP) | cleavage of CFP-YFP substrate (CFP-V34-YFP) | cleavage of CFP-YFP substrate (CFP-VEEVnsP23-YFP) |
| --- | --- | --- | --- | --- | --- | --- | --- | --- | --- | --- | --- | --- | --- | --- | --- | --- | --- |
| Recombinant MERS-CoV-2 Papain-like Protease | SARS-CoV-2, MERS PLpro | SARS-CoV-2, MERS PLpro | SARS-CoV-2, MERS PLpro | SARS-CoV-2, MERS PLpro | SARS-CoV-2, MERS PLpro | – | – | – | – | – | – | – | – | – | – | – | – |
| Recombinant VEEV nsP2-thioredoxin Protease containing residues 457-792 | – | – | – | – | – | CHIKV and VEEV nsP2 cysteine protease | CHIKV and VEEV nsP2 cysteine protease | 50 µM | 0.012 U/mg | VEEV nsP2 cysteine protease | 26 µM | 0.008 U/mg | VEEV nsP2 cysteine protease | 21 µM | 0.089 U/mg | VEEV nsP2 cysteine protease | VEEV nsP2 cysteine protease |
